Source: patent US20240092877A1 (DXDISCOVERY, published 2024)
Residue numbers refer to the chain shown, from its start.

B1: anti-TcfA monoclonal antibody 14G11 (antibody, V domains shown)
VH: EVKLVESGGGLVQPGGSLSLSCAASGFTFTDYYMSWVRQPPGKALEWLGFIRNKANGYTTEYSASVKGRFTISRDNSQSILYLQMNALRAEDSATYYCARYRRDYYGSLNYYTMDYWGQGTSVTVSS
VL: DIQMTQSPASLSASVGETVTITCRASENIYSYLAWYQQKQGKSPQLLVYNAKTLAEGVPSRFSGSGSGTQFSLKINSLQPEDFGSYYCQNHYGIPLTFGAGTKLELK
B2: anti-TcfA monoclonal antibody 14D12 (antibody, V domains shown)
VH: EVMLVESGGALVKPGGSLKLSCAASGITFSNYAMSWIRQTPEKRLEWVASISSGGSYIYYSDSVKGRFTISRDNARNTLNLQMSSLRSEDTAMYYCVRGAHGNFDYWGQGTTLTVSS
VL: DIVLTQSPASLAVSLGQRATISCRTSETVDYDGDSYMNWYQQKSGQPPKLLISGASNVESGVPARFSGSGSGTDFSLNIHPVEEDDITMYFCQQNRKLPYTFGSGTKLEMK
B3: anti-TcfA monoclonal antibody 3E6 (antibody, V domains shown)
VH: EVKLVESGGGLVQPGGSLRLSCATSGFTFTDYYMSWVRQPPGKALEWMGFIRNKAKGYTTDYSASVKGRFTISRDDSQSILYLQMNTLRPEDSATYYCARNYDYSMDYWGQGTSVTVSS
VL: DIQLTQSPASLSASVGETVTITCRASDNIHKYLAWYQQKQGKSPQRLVYNAKTLADGVPSRFNGSGSGTQYSLKINSLQPEDFGIYYCQHFWSTPLTFGAGTKLELK
B4: anti-TcfA monoclonal antibody 23F8 (antibody, V domains shown)
VH: EVQLVESGGGLVKPGGSRKLSCAASGFTFSDYGMHWVRQAPEKGLEWVAYISSGSRTIYYADTVKGRFTISRDNAKNTLFLQMTSLRSEDTAMYYCARLGYGYDWYFDVWGTGTTVTVSS
VL: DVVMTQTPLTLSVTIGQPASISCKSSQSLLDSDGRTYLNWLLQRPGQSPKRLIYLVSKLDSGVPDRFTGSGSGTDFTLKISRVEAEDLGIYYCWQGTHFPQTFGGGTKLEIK
B5: anti-TcfA monoclonal antibody 20F4 (antibody, V domains shown)
VH: QIQLVQSGPELKKPGETVKISCKASGYTFTNYGMNWVKQAPGKGLKWMGWINTYTGEPTYADDFKGRFAFSLETSATTAYLQINNLKNEDTATYFCARAATGYFDYWGQGTTLTVSS
VL: DIVMSQSPSSLAVSAGEKVTMSCKSSQSLLYSSNQKNYLAWYQQKPGQSPKLLIYWASTRESGVPDRFTGSGSGTDFTLTISSVKAEDLAVYYCQQYYNEYTFGGGTKLEIK
B6: anti-TcfA monoclonal antibody 10B1 (antibody, V domains shown)
VH: EVQLQQSGAELVKPGASVKLSCTASGFNIKDTYIHWVKQRPEQGLEWIGRIDPANGNTIYASKFQGKAPITAVTSSNTAYMQFSSLTSGDTAVYYCTAMDYWGQGTSVTVSS
VL: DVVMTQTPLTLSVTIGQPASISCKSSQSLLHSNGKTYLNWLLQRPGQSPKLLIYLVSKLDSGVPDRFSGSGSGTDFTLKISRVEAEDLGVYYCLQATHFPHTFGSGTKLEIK
B7: anti-TcfA monoclonal antibody 7E11 (antibody, V domains shown)
VH: B6 VH with T58I, K67E, P69T, V73D, F83L, T97S
VL: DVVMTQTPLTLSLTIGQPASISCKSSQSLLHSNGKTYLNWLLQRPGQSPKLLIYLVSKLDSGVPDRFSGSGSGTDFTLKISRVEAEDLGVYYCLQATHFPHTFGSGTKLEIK
B8: anti-TcfA monoclonal antibody 18B2 (antibody, V domains shown)
VH: QVQLQQSGAELVRPGTSVKMSCKAAGYTFTNYWIGWVKQRPGHGLEWIGDIYPGGVYTNYNENFKGKATLTADTSSSTAHMQLSSLTSEDSAIYYCVRGGKYGNFFAMDYWGQGTSVTVSS
VL: DIVITQDELSNPVTSGESVSISCRSSKSLLYKDGKTYLNWFLQRPGQSPQLLIYLMSTRASGVSDRFSGSGSGTDFTLEISRVKAEDVGVYYCQQLVEYPFTFGSGTKLEIK
B9: anti-TcfA monoclonal antibody 13E11 (antibody, V domains shown)
VH: EVQLVESGGGLVKPGGSRKLSCAASGFTFSDYGMHWVRQAPEKGLEWVAYISSGSSTIYYADTVKGRFTISRDNAKNTLFLQMTSLRSEDTAMYYCARPRSGRYFDYWGQGTTLTVSS
VL: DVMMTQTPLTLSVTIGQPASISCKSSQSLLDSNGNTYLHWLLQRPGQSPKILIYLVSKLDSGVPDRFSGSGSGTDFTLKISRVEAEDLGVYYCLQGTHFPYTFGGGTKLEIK

Assays:
Experiment in all cases: indirect ELISA, plates coated with TcfA protein fragment
[1] = biological target: T1, TcfA peptide amino acids 305-323 conjugated to bovine serum albumin (Bordetella pertussis, conjugated to bovine serum albumin (BSA))
T1 construct: Protein fragment coated on ELISA plates; BSA conjugate
T1 peptide: GGDEGPQPPQGGGEQDAPE

[2] = biological target: T2, TcfA peptide amino acids 288-304 conjugated to bovine serum albumin (Bordetella pertussis, conjugated to bovine serum albumin (BSA))
T2 construct: Protein fragment coated on ELISA plates; BSA conjugate
T2 peptide: QLPERGDDAGPKPPEGE

[3] = biological target: T3, TcfA peptide amino acids 140-160 conjugated to bovine serum albumin (Bordetella pertussis, conjugated to bovine serum albumin (BSA))
T3 construct: Protein fragment coated on ELISA plates; BSA conjugate; also called aa140-160
T3 peptide: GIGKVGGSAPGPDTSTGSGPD

[4] = biological target: T4, TcfA protein fragment amino acids 40-374 (Bordetella pertussis)
T4 construct: Not conjugated to BSA
T4 chain: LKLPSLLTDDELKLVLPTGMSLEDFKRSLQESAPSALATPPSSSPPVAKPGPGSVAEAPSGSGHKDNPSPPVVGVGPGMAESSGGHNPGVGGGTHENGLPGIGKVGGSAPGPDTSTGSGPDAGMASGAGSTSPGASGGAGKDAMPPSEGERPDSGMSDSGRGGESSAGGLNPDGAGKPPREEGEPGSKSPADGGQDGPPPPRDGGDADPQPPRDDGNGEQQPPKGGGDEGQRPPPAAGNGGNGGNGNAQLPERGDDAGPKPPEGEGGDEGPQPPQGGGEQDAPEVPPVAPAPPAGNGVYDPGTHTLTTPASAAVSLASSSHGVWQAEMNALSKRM

Binder | binding result [1] | binding result [2] | binding result [3] | further results
B1 | binds |  |  | 
B2 |  | binds |  | 
B3 |  |  | binds | 
B4 |  | binds |  | 
B5 | binds |  |  | 
B6 |  |  | binds | 
B7 |  |  | binds | 
B8 |  |  |  | binding result [4]: binds
B9 | binds | binds |  | 
